# Patent publication US20180305405A1
# Where no end group is shown, it is not given here.
# How the values were obtained:
# [1] = target: αvβ3 integrin receptor expressed on mouse H5V endothelial cells (mouse) (UniProt P43406); assay: H5V cell binding assay at 4 °C, time-resolved fluorometry; non-specific binding defined with 1 µM RGD-4C; highest ligand concentration
# [2] = target: αvβ3 integrin receptor expressed on mouse H5V endothelial cells (mouse) (UniProt P43406); assay: Scatchard analysis of Eu-RGD-4C binding to H5V cells at 4 °C, time-resolved fluorometry
# [3] = target: αvβ3 integrin receptor expressed on mouse H5V endothelial cells (mouse) (UniProt P43406); assay: H5V cell binding assay at 4 °C, time-resolved fluorometry; non-specific binding defined with 1 µM RGD-4C; low ligand concentrations
# [4] = target: αvβ3 integrin receptor expressed on mouse H5V endothelial cells (mouse) (UniProt P43406); assay: cell-based or functional assay
# Chain of αvβ3 integrin receptor expressed on mouse H5V endothelial cells (mouse) (P43406 31-1044, chain 1 of 2): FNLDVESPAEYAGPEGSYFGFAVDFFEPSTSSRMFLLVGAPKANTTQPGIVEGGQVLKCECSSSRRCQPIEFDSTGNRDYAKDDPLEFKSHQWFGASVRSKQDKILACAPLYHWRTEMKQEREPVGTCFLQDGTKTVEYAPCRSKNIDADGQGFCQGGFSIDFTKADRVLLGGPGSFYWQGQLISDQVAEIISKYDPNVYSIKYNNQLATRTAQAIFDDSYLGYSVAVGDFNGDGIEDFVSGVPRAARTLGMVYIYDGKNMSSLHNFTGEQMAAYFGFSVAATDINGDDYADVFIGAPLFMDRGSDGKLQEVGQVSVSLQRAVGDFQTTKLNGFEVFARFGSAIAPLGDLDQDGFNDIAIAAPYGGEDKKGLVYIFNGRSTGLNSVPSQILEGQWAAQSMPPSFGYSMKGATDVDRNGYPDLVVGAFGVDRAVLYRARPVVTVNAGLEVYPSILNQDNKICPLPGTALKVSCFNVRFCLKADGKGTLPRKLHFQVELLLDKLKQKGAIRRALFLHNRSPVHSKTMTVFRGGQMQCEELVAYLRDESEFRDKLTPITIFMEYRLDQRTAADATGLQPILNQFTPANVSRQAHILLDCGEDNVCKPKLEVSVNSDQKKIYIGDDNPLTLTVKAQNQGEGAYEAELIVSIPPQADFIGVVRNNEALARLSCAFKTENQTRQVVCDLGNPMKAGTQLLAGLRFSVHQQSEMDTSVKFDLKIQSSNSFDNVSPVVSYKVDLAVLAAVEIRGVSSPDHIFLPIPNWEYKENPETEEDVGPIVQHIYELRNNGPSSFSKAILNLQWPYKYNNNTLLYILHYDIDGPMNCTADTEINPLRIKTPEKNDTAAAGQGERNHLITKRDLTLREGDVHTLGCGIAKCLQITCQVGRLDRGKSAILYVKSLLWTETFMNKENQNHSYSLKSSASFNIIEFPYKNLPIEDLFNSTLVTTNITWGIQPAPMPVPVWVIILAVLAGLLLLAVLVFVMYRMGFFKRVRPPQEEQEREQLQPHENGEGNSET
# Chain of αvβ3 integrin receptor expressed on mouse H5V endothelial cells (mouse) (O54890 26-787, chain 2 of 2, further chain): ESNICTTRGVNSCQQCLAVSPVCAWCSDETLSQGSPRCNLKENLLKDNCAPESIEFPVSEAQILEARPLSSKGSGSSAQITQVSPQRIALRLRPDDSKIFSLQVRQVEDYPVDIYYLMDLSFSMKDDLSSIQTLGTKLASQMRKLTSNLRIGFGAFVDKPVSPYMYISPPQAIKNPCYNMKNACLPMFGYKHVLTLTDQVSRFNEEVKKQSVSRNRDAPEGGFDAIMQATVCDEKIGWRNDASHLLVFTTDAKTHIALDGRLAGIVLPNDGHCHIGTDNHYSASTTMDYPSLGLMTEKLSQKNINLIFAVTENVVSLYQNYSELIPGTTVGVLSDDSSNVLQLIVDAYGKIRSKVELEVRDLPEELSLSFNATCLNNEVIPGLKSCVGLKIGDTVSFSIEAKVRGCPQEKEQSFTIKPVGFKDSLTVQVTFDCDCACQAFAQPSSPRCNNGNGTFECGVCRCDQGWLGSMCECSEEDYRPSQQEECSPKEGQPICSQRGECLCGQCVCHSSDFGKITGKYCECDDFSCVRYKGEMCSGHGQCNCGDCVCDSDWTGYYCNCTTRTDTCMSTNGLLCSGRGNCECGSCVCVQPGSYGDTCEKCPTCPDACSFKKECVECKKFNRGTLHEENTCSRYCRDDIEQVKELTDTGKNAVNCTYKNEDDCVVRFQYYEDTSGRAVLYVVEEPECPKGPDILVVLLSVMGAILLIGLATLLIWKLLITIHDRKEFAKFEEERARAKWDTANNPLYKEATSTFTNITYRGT
ratio of total binding to non-specific binding [1],Kd [2] [nM],ratio of total binding to non-specific binding [3],"H5V endothelial cell detachment (rounded cells) in cell-rounding assay, 100 µM RGD-4C [4] [%]",Binder
4,37.2 to 41.3,1,–,"CDCRGDCFC-NH2 (disulfide (positions not given here); also: two disulfides among four Cys, pairing not given here, isothiocyanatophenyl-DTPA-Eu conjugated, site not given here) [Eu-labeled RGD-4C (isothiocyanatophenyl-DTPA-Eu-RGD-4C)]"
–,–,–,99,"H-CDCRGDCFC-NH2 (disulfide (positions not given here); also: two disulfides, pairing not given here) [cyclic nonapeptide RGD-4C]"
